Test results published in US20240342190A1, “METHODS FOR REDUCING ISCHEMIA-REPERFUSION INJURIES” (BioMimetix JV, LLC, priority 2023, published 2024).

Experiment: Experiment 8: interaction of BMX-001 with t-PA (blood clot dissolution)
Parameters: species or system rat
Conditions: rat blood clots; 1 mg/ml t-PA with or without 50 μg/ml BMX-001; 37° C. for 30 minutes
Method: Fresh arterial blood samples were collected from young male rats and distributed into 21 pre-weighed centrifuge tubes. After sitting at 37° C. for 3 hours, the blood clots were formed. The supernatant was removed from these tubes and then the tubes with blood clots were weighed. The weight of the blood clot was calculated (=the tube with blood clot-pre-weighed tube). Then, 1 ml saline, t-PA (1 mg/ml) or t-PA (1 mg/ml) plus BMX-001 (50 μg/ml) were added (n=7 for each group) and tubes placed in 37° C. dry incubator for 3 hours. The liquids were then removed from the tubes. The tubes with remaining blood clots were weighed again. The percentage of blood clot dissolved by t-PA was calculated.

B1: tissue plasminogen activator (protein, UniProt P00750 36-562, looked up)
Tissue-type plasminogen …: SYQVICRDEKTQMIYQQHQSWLRPVLRSNRVEYCWCNSGRAQCHSVPVKSCSEPRCFNGGTCQQALYFSDFVCQCPEGFAGKCCEIDTRATCYEDQGISYRGTWSTAESGAECTNWNSSALAQKPYSGRRPDAIRLGLGNHNYCRNPDRDSKPWCYVFKAGKYSSEFCSTPACSEGNSDCYFGNGSAYRGTHSLTESGASCLPWNSMILIGKVYTAQNPSAQALGLGKHNYCRNPDGDAKPWCHVLKNRRLTWEYCDVPSCSTCGLRQYSQPQFRIKGGLFADIASHPWQAAIFAKHRRSPGERFLCGGILISSCWILSAAHCFQERFPPHHLTVILGRTYRVVPGEEEQKFEVEKYIVHKEFDDDTYDNDIALLQLKSDSSRCAQESSVVRTVCLPPADLQLPDWTECELSGYGKHEALSPFYSERLKEAHVRLYPSSRCTSQHLLNRTVTDNMLCAGDTRSGGPQANLHDACQGDSGGPLVCLNDGRMTLVGIISWGLGCGQKDVPGVYTKVTNYLDWIRDNMRP
notes: standard thrombolytic therapy
- Percentage of blood clot dissolved: 44.77±25.77%
